Data published in publication PMC10967246, “A novel tetratricopeptide-repeat protein, TTP1, forms complexes with glutamyl-tRNA reductase and protochlorophyllide oxidoreductase during tetrapyrrole biosynthesis” (Journal of Experimental Botany, 2023).

What was measured:
Assay in all cases: MST; 200 nM RED-NHS-labelled 6×His–TTP1 constant, decreasing amounts of the binding partner; phosphate-buffered saline; Monolith NT.115, standard capillaries, excitation 100%, MST power 40%; Kd fit for 1:1 stoichiometry
Details in all cases: both partners purified
[1] = molecular target: T1, recombinant His-tagged GluTR-binding protein (GBP) (Arabidopsis, UniProt Q9LU39 43-317)
T1 construct: source: recombinant, His-tagged
T1 sequence (looked up): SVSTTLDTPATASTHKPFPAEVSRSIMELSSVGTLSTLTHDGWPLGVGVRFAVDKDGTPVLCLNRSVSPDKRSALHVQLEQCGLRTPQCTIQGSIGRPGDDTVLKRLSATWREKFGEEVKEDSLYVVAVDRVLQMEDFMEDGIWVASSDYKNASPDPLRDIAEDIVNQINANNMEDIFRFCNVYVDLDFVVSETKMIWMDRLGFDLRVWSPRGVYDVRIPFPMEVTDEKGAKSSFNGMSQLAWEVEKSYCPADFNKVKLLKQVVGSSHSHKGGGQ

[2] = molecular target: T2, recombinant His-tagged PORC (Arabidopsis, UniProt O48741 68-401)
T2 construct: protochlorophyllide oxidoreductase C, Arabidopsis; source: recombinant, His-tagged
T2 sequence (looked up): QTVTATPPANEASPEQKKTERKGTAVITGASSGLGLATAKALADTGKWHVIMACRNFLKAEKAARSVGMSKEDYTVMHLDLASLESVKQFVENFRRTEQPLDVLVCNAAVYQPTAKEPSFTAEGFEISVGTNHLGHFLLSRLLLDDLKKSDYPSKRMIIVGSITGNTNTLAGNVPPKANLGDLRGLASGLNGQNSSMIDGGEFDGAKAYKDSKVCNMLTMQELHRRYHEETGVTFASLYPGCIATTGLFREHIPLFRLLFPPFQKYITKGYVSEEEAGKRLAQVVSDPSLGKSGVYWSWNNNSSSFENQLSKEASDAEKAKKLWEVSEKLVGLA

[3] = molecular target: T3, recombinant His-tagged full-length GluTR1 (Arabidopsis, UniProt P42804 62-543)
T3 construct: glutamyl-tRNA reductase 1 (HEMA1), Arabidopsis; called full-length GluTR1 in the legend; source: recombinant, His-tagged

[4] = molecular target: T4, recombinant His-tagged PORB (Arabidopsis, UniProt P21218 67-401)
T4 construct: protochlorophyllide oxidoreductase B, Arabidopsis; source: recombinant, His-tagged
T4 sequence (looked up): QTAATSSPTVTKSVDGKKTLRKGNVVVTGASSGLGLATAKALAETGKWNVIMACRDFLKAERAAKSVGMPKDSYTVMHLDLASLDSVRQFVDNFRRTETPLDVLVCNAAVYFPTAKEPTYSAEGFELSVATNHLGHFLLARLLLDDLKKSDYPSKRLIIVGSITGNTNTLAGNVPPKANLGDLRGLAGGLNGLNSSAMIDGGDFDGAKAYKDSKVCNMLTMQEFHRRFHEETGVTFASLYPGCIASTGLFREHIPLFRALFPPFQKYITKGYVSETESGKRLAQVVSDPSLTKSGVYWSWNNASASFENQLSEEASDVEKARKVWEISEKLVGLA

Measured: Kd

B1: recombinant 6×His-tagged TTP1, RED-NHS labelled (natural protein)
chain: MLMTLAATTSVSFNSKLLLFRIRCSDSNPKRGFGSKKEEKDPALQQRKSSSKQSVSVPRKAPGLNTQFEGKSGRSFDIDFDERLENIRRSALEQKKTEVVKEFGPIDYDAPVKSDQKTIGLGTKVGVGIAVVVFGLVFALGDFLPTGSDSPTKNTTVVKNQISEEEKATLQQRLKEFETTLNGTPQDQAALEGAAVTLTELGDYSRAAAFLEKLAKERPTDPDVFRLLGEVNYELNNYEGSIAAYKISEKVSKGIDLEVTRGLMNAYLAAKKPDEAVKFLLDTRERLNTKKTSTTDSVTDETNLDPIQVELLLGKAYSDWGHISDAIAVYDQLISAHPEDFRGYLAKGIILRENGSRGDAERMFIQARFFAPNKAKALVDRYSKL
modifications: labelled with the RED-NHS Protein Labeling Kit, degree of labeling approximately 1.0
< 1000 nM: all assays above
